Experimental data from patent US20190263932A1 (Eli Lilly, published 2019).

How the values were obtained:
[1] = biological target: TrkA on rat NEUROSCREEN-1 cells (pheochromocytoma PC12 subclone) (rat, UniProt P35739 33-799); experiment: cell-based or functional assay
[2] = biological target: T1, rat TrkA receptor expressed in transfected HEK293 cells (rat, UniProt P35739 33-799); experiment: cell-based or functional assay
[3] = biological target: T1, rat TrkA receptor expressed in …; experiment: cell-based or functional assay; remark: listed apart in the source
[4] = biological target: T2, Human TrkA Extracellular Domain Isoform 2 (33-408) (human, UniProt P04629 33-414); experiment: SPR, mAb captured on Protein A chip, 37 C
T2 construct: SPR analyte; also called Human TrkA Isoform 2
T2 sequence (P04629 other isoform, or with tags, fused parts or gaps): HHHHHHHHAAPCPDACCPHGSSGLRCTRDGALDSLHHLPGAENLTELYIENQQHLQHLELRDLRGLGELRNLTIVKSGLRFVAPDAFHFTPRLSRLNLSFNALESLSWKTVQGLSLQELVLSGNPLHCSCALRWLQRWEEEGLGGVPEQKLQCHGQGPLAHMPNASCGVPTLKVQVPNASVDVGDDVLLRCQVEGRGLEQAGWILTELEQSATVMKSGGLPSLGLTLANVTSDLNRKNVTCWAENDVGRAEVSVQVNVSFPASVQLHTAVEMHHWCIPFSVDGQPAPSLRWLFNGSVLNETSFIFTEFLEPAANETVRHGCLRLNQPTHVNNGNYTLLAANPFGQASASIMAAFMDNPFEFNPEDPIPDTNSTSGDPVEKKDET
Method: (§1) The binding kinetics and affinity of exemplified antibodies to human, cynomolgus monkey, rat, mouse, and rabbit TrkA are determined as described below using a surface plasmon resonance assay on a BIACORE™ 8K instrument (GE Healthcare). Two different isoforms of human TrkA (isoform 1 and isoform 2) are evaluated along with human TrkB and human TrkC. […] All FC2 on all eight channels are set to capture approximately 89 response units (RU) of antibody at a flow rate of 10 μL/min. The antibody sample is prepared at 1 μg/mL by dilution into the running buffer. […] Before the analysis cycle, the chip is regenerated with 3 injections of glycine (pH ˜1.5) at 100 μL/min for a contact time of 15 seconds on FC1 and FC2 in order to clean the surface of the chip.

[5] = biological target: T3, Human TrkA Extracellular Domain Isoform 1 (33-414) (human, UniProt P04629 33-414); experiment: SPR, mAb captured on Protein A chip, 37 C
T3 construct: SPR analyte; also called Human TrkA Isoform 1
T3 sequence (P04629 other isoform, or with tags, fused parts or gaps): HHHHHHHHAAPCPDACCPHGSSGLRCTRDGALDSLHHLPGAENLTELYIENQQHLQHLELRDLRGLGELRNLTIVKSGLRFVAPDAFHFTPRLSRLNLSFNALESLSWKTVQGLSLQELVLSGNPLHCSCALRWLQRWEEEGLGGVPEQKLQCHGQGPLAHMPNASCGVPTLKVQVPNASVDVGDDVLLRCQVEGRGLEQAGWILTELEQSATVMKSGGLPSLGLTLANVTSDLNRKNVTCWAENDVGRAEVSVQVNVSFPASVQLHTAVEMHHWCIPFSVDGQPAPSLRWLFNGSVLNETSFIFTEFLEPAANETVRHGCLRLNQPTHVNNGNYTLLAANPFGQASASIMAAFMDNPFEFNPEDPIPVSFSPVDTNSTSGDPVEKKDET
Method: as §1

[6] = biological target: T4, recombinant human TrkA protein (human, UniProt P04629-2 34-407, limits assumed); experiment: NGF-blocking ELISA on coated human TrkA, 100 nM btNGF
T4 sequence (P04629 other isoform, or with tags, fused parts or gaps limits assumed): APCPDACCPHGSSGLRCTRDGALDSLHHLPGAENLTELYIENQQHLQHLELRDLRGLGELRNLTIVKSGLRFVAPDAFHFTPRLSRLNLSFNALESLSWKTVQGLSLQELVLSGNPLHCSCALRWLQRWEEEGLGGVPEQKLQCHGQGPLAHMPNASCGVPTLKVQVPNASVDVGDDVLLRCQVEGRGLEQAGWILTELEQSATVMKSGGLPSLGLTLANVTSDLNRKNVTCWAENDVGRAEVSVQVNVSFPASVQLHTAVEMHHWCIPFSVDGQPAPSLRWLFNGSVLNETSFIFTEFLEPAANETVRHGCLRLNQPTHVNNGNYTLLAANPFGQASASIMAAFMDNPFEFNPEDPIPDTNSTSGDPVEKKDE
Method: (§2) Each row of a 96-well high-binding clear-bottom microtiter plate (Microlon, #655061) was coated overnight at 4° C. with 100 μL/well of recombinant human TrkA protein, diluted to 2 μg/mL in phosphate buffered saline, pH 7.2 (PBS). The next day, the coating solution was removed, and the plate was blocked with 150 μL of Casein-PBS (Thermo Scientific, #37528) for 1 hour at 25° C. with gentle shaking. The plate was then washed three times with PBS supplemented with 0.05% Tween20 (PBST). A two-fold dilution series of exemplified antibodies, along with IgG4 and IgG1 isotype control antibodies, was generated starting at 20 nM in Casein-PBS. 100 μL of the each dilution series sample was added to a well for 30 min at 37° C. with gentle shaking. The plate was then washed three times with PBST. […] The plate was then washed three times with PBST. A 1:3500 dilution of a 1 mg/mL stock solution of streptavidin-HRP (Thermo Scientific, #21130) in Casein-PBS was prepared and […] was added to each well for 20 min at 37° C. with gentle shaking. The plate was washed three times with PBST. […] The reaction was stopped by addition of 100 μL of 1M H₃PO₄ to each well. The absorbance at 450 nm (Abs450) was measured using a SpectraMax 340PC plate reader (Molecular Devices).

[7] = biological target: T4, recombinant human TrkA protein; experiment: NGF-blocking ELISA on coated human TrkA, 100 nM btNGF; mAb 5 nM
Method: as §2

[8] = biological target: T4, recombinant human TrkA protein; experiment: NGF-blocking ELISA on coated human TrkA, 100 nM btNGF; mAb 10 nM
Method: as §2

[9] = biological target: T4, recombinant human TrkA protein; experiment: NGF-blocking ELISA on coated human TrkA, 100 nM btNGF; mAb 20 nM
[10] = biological target: T4, recombinant human TrkA protein; experiment: NGF-blocking ELISA on coated human TrkA, 100 nM btNGF; mAb 2.5 nM
Method: as §2

[11] = biological target: T4, recombinant human TrkA protein; experiment: NGF-blocking ELISA on coated human TrkA, 100 nM btNGF; mAb 0.02 nM
Method: as §2

[12] = biological target: T4, recombinant human TrkA protein; experiment: NGF-blocking ELISA on coated human TrkA, 100 nM btNGF; mAb 0.04 nM
Method: as §2

[13] = biological target: T4, recombinant human TrkA protein; experiment: NGF-blocking ELISA on coated human TrkA, 100 nM btNGF; mAb 0.08 nM
Method: as §2

[14] = biological target: T4, recombinant human TrkA protein; experiment: NGF-blocking ELISA on coated human TrkA, 100 nM btNGF; mAb 0.16 nM
Method: as §2

[15] = biological target: T4, recombinant human TrkA protein; experiment: NGF-blocking ELISA on coated human TrkA, 100 nM btNGF; mAb 0.63 nM
Method: as §2

[16] = biological target: T4, recombinant human TrkA protein; experiment: NGF-blocking ELISA on coated human TrkA, 100 nM btNGF; mAb 1.25 nM
Method: as §2

[17] = biological target: T4, recombinant human TrkA protein; experiment: NGF-blocking ELISA on coated human TrkA, 100 nM btNGF; mAb 0.31 (printed pM, two-fold series gives nM)
Method: as §2

Chain of TrkA on rat NEUROSCREEN-1 cells (pheochromocytoma PC12 subclone) (P35739 33-799): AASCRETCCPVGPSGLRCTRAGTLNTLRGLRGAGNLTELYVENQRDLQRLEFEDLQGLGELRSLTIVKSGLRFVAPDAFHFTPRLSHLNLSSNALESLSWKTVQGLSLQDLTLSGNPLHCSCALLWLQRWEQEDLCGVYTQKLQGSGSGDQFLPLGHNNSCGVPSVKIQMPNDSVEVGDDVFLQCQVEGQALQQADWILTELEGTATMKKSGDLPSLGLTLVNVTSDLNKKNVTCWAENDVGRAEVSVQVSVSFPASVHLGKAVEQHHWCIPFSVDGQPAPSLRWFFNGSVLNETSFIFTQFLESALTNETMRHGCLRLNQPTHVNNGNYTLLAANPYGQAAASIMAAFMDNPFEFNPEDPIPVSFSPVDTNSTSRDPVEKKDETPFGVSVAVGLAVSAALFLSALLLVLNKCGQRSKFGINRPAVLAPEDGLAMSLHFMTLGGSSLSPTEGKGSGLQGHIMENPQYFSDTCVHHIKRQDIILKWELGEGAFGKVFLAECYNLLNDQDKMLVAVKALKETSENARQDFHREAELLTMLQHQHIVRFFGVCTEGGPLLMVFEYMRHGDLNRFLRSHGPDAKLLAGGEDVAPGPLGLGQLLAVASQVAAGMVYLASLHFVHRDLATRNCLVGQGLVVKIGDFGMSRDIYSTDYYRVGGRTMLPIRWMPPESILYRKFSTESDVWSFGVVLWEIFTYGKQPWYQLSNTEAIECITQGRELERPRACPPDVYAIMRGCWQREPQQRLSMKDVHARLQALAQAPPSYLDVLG
T1 sequence (P35739 33-799): as above

Binder	% Max Stimulation of neurite outgrowth [1] [%]	IC50, inhibition of NGF-induced neurite outgrowth [1] [nM]	% Max Inhibition, pTrkA [2] [%]	IC50 (nM), pTrkA [2] [nM]	pTrkA counts per second, NGF +0.1 pM mAb [2] [counts per second]	pTrkA counts per second, NGF +1 pM mAb [2] [counts per second]	pTrkA counts per second, NGF +10 pM mAb [2] [counts per second]	pTrkA counts per second, NGF +100 pM mAb [2] [counts per second]	pTrkA counts per second, NGF +1 nM mAb [2] [counts per second]	pTrkA counts per second, NGF +10 nM mAb [2] [counts per second]	pTrkA counts per second, NGF +100 nM mAb [2] [counts per second]	pTrkA counts per second, NGF +1 uM mAb [2] [counts per second]	% Max stimulation, pTrkA [3] [%]	EC50 (nM), pTrkA [3] [nM]	pTrkA counts per second, 0.1 pM mAb, no NGF [3] [counts per second]	pTrkA counts per second, 1 pM mAb, no NGF [3] [counts per second]	pTrkA counts per second, 10 pM mAb, no NGF [3] [counts per second]	pTrkA counts per second, 100 pM mAb, no NGF [3] [counts per second]	pTrkA counts per second, 1 nM mAb, no NGF [3] [counts per second]	pTrkA counts per second, 10 nM mAb, no NGF [3] [counts per second]	also measured
mAb D (antibody, human IgG1, kappa, Human IgG1EN/Kappa) heavy: EVQLVESGGGLVKPGGSLRLSCAASGFTFSGVSINWVRQAPGKGLEWVSSETTSSGTIYYADSVKGRFTISRDNAKNSLYLQMNSLRAEDTAVYYCARSYYYGMDVWGQGTTVTVSSASTKGPSVFPLAPSSKSTSGGTAALGCLVKDYFPEPVTVSWNSGALTSGVHTFPAVLQSSGLYSLSSVVTVPSSSLGTQTYICNVNHKPSNTKVDKRVEPKSCDKTHTCPPCPAPEAEGAPSVFLFPPKPKDTLMISRTPEVTCVVVDVSHEDPEVKFNWYVDGVEVHNAKTKPREEQYNSTYRVVSVLTVLHQDWLNGKEYKCKVSNKALPSSIEKTISKAKGQPREPQVYTLPPSREEMTKNQVSLTCLVKGFYPSDIAVEWESNGQPENNYKTTPPVLDSDGSFFLYSKLTVDKSRWQQGNVFSCSVMHEALHNHYTQKSLSLSPGK light: DIVMTQTPLSSPVTLGQPASISCRSSQSLVHRAGNTYLSWLQQRPGQPPRLLIYKISNRFSGVPDRFSGSGAGTDFTLKISRVEAEDVGVYYCMQARQFPLTFGGGTKVEIKRTVAAPSVFIFPPSDEQLKSGTASVVCLLNNFYPREAKVQWKVDNALQSGNSQESVTEQDSKDSTYSLSSTLTLSKADYEKHKVYACEVTHQGLSSPVTKSFNRGEC	17	0.08	40	0.68	4.53e+06	4.06e+06	4.52e+06	3.79e+06	3.16e+06	2.43e+06	2.59e+06	1.93e+06	77	0.17	571000	585000	627000	1.25e+06	2.39e+06	2.97e+06	pTrkA counts per second, 100 nM mAb, no NGF [3]: 2.85e+06 counts per second; pTrkA counts per second, 1 uM mAb, no NGF [3]: 2.05e+06 counts per second; Kd [4]: 4.9 nM; koff [4]: 0.0013 s⁻¹; kon [4]: 250000 M⁻¹ s⁻¹; Kd [5]: 4.4 nM; koff [5]: 0.0012 s⁻¹; kon [5]: 280000 M⁻¹ s⁻¹; IC50 [6]: 0.37 nM; Absorbance 450 nm [7]: 0.19; Absorbance 450 nm [8]: 0.17; Absorbance 450 nm [9]: 0.19; Absorbance 450 nm [10]: 0.16; Absorbance 450 nm [11]: 1.05; Absorbance 450 nm [12]: 1; Absorbance 450 nm [13]: 0.96; Absorbance 450 nm [14]: 0.89; Absorbance 450 nm [15]: 0.38; Absorbance 450 nm [16]: 0.19; Absorbance 450 nm [17]: 0.67
mAb E (antibody, human IgG1, kappa, Human IgG1EN/Kappa) heavy: EVQLVESGGGLVKPGGSLRLSCAASGFTFSGVSINWVRQAPGKGLEWVSSETTSSGTIYYADSVKGRFTISRDNAKNSLYLQMNSLRAEDTAVYYCARSYYYGMDVWGQGTTVTVSSASTKGPSVFPLAPSSKSTSGGTAALGCLVKDYFPEPVTVSWNSGALTSGVHTFPAVLQSSGLYSLSSVVTVPSSSLGTQTYICNVNHKPSNTKVDKRVEPKSCDKTHTCPPCPAPEAEGAPSVFLFPPKPKDTLMISRTPEVTCVVVDVSHEDPEVKFNWYVDGVEVHNAKTKPREEQYNSTYRVVSVLTVLHQDWLNGKEYKCKVSNKALPSSIEKTISKAKGQPREPQVYTLPPSREEMTKNQVSLTCLVKGFYPSDIAVEWESNGQPENNYKTTPPVLDSDGSFFLYSKLTVDKSRWQQGNVFSCSVMHEALHNHYTQKSLSLSPGK light: DIVMTQTPLSSPVTLGQPASISCRSSQSLVHRQGNTYLSWLQQRPGQPPRLLIYKISNRFSGVPDRFSGSGAGTDFTLKISRVEAEDVGVYYCMQARQFPLTFGGGTKVEIKRTVAAPSVFIFPPSDEQLKSGTASVVCLLNNFYPREAKVQWKVDNALQSGNSQESVTEQDSKDSTYSLSSTLTLSKADYEKHKVYACEVTHQGLSSPVTKSFNRGEC	17	0.07	37	0.68	2.94e+06	3.38e+06	3.44e+06	3.7e+06	2.27e+06	2.23e+06	1.7e+06	1.88e+06	74	0.3	739000	636000	610000	1.01e+06	1.82e+06	2.46e+06	pTrkA counts per second, 100 nM mAb, no NGF [3]: 2.02e+06 counts per second; pTrkA counts per second, 1 uM mAb, no NGF [3]: 2.05e+06 counts per second; Kd [4]: 5.2 nM; koff [4]: 0.0014 s⁻¹; kon [4]: 260000 M⁻¹ s⁻¹; Kd [5]: 4.8 nM; koff [5]: 0.0013 s⁻¹; kon [5]: 270000 M⁻¹ s⁻¹; IC50 [6]: 0.35 nM; Absorbance 450 nm [7]: 0.21; Absorbance 450 nm [8]: 0.19; Absorbance 450 nm [9]: 0.19; Absorbance 450 nm [10]: 0.19; Absorbance 450 nm [11]: 1.1; Absorbance 450 nm [12]: 1.04; Absorbance 450 nm [13]: 1.05; Absorbance 450 nm [14]: 0.92; Absorbance 450 nm [15]: 0.41; Absorbance 450 nm [16]: 0.25; Absorbance 450 nm [17]: 0.68
